From patent US20250101074A1 (Affibody, published 2025)

Key:
Assay in all cases: SPR (Biacore), PEP07843 immobilized, analyte protein injected
[1] = target: T1, hIL-17D (human, UniProt Q8TAD2 18-202, limits assumed)
T1 sequence (looked up): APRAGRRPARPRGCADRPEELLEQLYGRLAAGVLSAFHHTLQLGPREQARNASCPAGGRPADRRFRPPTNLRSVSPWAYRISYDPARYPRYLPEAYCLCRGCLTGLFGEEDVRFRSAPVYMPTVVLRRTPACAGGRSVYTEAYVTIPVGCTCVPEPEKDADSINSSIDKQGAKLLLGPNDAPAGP
Description: (§1) In the binding experiment, HBS-EP was used as running buffer and the flow rate was 30 μl/min. […] The analytes, i.e. the panels of 24 or 12 different proteins, were each diluted in HBS-EP or HBS-EP supplemented with 500 mM NaCl to final concentrations of from 0.4 to 250 nM and injected for 5 min. […] The results were analyzed using the BiaEvaluation software.
(§2) The Z-ABD-Z polypeptides were injected over surfaces containing HSA followed by injection of the analyte proteins.

[2] = target: T2, hIL-17E (human, UniProt Q9H293 33-177)
T2 sequence (looked up): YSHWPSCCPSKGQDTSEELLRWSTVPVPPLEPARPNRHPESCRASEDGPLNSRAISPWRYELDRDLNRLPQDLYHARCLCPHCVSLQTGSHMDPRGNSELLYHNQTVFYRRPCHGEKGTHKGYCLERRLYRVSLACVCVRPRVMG
Description: as §1, §2

[3] = target: T3, Human a-2 macroglobulin (human, UniProt P01023 24-1474)
T3 sequence (looked up): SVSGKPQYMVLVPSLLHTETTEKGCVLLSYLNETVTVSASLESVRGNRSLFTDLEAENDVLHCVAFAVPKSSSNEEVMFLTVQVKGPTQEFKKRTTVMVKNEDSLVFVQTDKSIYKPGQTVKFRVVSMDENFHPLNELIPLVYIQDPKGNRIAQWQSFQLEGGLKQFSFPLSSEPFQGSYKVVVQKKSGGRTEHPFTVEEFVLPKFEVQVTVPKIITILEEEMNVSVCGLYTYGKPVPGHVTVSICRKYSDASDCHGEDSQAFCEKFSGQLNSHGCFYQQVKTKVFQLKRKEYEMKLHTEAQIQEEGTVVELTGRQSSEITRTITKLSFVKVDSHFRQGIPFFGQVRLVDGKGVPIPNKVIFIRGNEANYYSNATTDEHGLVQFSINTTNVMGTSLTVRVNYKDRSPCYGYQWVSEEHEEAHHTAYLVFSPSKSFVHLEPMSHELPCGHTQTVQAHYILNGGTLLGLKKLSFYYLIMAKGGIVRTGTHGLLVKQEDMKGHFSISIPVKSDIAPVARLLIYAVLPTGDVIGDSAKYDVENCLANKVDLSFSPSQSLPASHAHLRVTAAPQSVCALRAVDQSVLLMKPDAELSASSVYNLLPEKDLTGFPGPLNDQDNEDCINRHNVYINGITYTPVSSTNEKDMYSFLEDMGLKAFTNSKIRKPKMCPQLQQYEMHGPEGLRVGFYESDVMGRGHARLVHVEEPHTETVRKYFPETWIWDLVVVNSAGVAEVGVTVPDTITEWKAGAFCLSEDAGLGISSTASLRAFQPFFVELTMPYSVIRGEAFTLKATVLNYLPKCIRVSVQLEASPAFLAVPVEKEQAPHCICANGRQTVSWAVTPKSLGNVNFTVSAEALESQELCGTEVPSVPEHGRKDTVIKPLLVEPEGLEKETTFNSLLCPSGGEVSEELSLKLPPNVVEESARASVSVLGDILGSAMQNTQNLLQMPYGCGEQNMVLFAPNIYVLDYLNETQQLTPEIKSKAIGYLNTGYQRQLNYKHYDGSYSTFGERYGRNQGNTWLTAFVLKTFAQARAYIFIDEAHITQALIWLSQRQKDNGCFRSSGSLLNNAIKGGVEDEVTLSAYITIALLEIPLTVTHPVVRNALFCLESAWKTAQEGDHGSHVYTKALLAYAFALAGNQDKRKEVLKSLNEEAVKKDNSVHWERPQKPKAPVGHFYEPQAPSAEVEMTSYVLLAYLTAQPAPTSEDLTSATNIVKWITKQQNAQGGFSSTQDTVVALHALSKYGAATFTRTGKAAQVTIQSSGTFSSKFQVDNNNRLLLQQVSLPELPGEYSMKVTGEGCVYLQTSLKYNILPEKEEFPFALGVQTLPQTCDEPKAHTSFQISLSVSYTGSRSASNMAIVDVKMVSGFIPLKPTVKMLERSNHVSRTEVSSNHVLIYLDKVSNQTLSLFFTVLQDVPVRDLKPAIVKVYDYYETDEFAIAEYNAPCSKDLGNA
Description: as §1, §2

[4] = target: T4, Human Hemopexin/HPX Protein (human, UniProt P02790 24-462)
T4 sequence (looked up): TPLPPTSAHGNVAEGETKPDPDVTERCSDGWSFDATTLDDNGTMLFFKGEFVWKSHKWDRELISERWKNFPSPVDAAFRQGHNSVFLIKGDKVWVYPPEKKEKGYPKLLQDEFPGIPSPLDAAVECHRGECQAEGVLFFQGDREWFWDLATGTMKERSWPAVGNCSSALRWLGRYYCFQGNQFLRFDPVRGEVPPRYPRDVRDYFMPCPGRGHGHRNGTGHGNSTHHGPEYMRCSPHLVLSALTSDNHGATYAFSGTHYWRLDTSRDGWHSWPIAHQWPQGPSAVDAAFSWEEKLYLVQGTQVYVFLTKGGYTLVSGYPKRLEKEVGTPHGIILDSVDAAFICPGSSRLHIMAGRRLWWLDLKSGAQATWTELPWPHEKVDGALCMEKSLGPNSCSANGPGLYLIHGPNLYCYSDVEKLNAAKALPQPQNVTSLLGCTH
Description: as §1, §2

[5] = target: T5, AMBP/Alpha1 microglobulin (UniProt P02760 20-203, limits assumed)
T5 sequence (looked up): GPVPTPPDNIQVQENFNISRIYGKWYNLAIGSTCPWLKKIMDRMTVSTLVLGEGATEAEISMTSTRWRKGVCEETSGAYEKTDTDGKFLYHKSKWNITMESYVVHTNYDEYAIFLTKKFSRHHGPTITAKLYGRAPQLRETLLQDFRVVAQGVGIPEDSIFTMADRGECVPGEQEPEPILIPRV
Description: as §1, §2

[6] = target: Beta-2-microglobulin/B2M (UniProt P61769 21-119)
Description: as §1, §2

Measured: binding result

Chain of Beta-2-microglobulin/B2M (P61769 21-119 limits assumed): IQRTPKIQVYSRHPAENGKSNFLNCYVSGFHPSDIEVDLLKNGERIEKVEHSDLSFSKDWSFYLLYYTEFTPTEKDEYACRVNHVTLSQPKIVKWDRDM

GSSLAEAKEAANAELDSYGVSDFYKRLIDKAKTVEGVEALKDAILAALP (designed binder) [ABD variant PEP07843]
no binding (tested: 50, 250 nM): all assays above
